The values that follow come from patent US7294706.

Where a chain is given by its changes, count along the chain named. In names and notes the source's numbering stands. Where only a bound is given, the exact number is not on record here.

The target in assay [1] is FGFR2 over-expressed on CHO cells (CHO-FGFR2) and on 32D cells (32D-FGFR2) (UniProt P21803). Put plainly: competition of unlabeled protein with 125I-FGF4 (Gly79-Leu206) for CHO-FGFR2 cells, +heparin.
Assay [2] shares this target. Description: cell-based or functional assay.

B1: FGF4 (Gly79-Leu206) Y87A (ligand)
chain: GIKRLRRLACNVGIGFHLQALPDGRIGGAHADTRDSLLELSPVERGVVSIFGVASRFFVAMSSKGKLYGSPFFTDECTFKEILLPNNYNAYESYKYPGMFIALGKNGKTKKGNRVSPTMKVTHFLPRL
Take B1: the IC50 mutant/IC50 wild-type (ratio (IC50 mutant/IC50 wild-type)) in assay [1] was more than 100. In assay [2], the DNA Synthesis NIH 3T3 cells (ED50 mutant/ED50 wild-type), +heparin (ratio ED50 mutant/ED50 wild-type) amounted to 500 and the DNA Synthesis NIH 3T3 cells (ED50 mutant/ED50 wild-type), -heparin (ratio ED50 mutant/ED50 wild-type) is more than 500.

B2: FGF4 (Gly79-Leu206) E117A (ligand)
chain: B1 chain with A9Y, E39A
Turning to B2, the IC50 mutant/IC50 wild-type (ratio (IC50 mutant/IC50 wild-type)) in assay [1] was 7.

B3: FGF4 (Gly79-Leu206) F129A (ligand)
chain: B1 chain with A9Y, F51A
In the case of B3, the IC50 mutant/IC50 wild-type (ratio (IC50 mutant/IC50 wild-type)) in assay [1] was more than 100. Moreover, in assay [2], the DNA Synthesis NIH 3T3 cells (ED50 mutant/ED50 wild-type), +heparin (ratio ED50 mutant/ED50 wild-type) was more than 500 and the DNA Synthesis NIH 3T3 cells (ED50 mutant/ED50 wild-type), -heparin (ratio ED50 mutant/ED50 wild-type) was more than 500.

B4: N-terminal truncated wild-type FGF4 (Gly79-Leu206) (ligand)
chain: B1 chain with A9Y
B4: in assay [1], the IC50 mutant/IC50 wild-type (ratio (IC50 mutant/IC50 wild-type)) came out at 1.

B5: FGF4 (Gly79-Leu206) R205A (ligand)
chain: B1 chain with A9Y, R127A
Turning to B5, the IC50 mutant/IC50 wild-type (ratio (IC50 mutant/IC50 wild-type)) in assay [1] is 2.5. Further, in assay [2], the DNA Synthesis NIH 3T3 cells (ED50 mutant/ED50 wild-type), +heparin (ratio ED50 mutant/ED50 wild-type) was 2.5 and the DNA Synthesis NIH 3T3 cells (ED50 mutant/ED50 wild-type), -heparin (ratio ED50 mutant/ED50 wild-type) stood at 25.

B6: FGF4 (Gly79-Leu206) Y166A (ligand)
chain: B1 chain with A9Y, Y88A
With B6, the IC50 mutant/IC50 wild-type (ratio (IC50 mutant/IC50 wild-type)) in assay [1] is more than 100. In addition, in assay [2], the DNA Synthesis NIH 3T3 cells (ED50 mutant/ED50 wild-type), +heparin (ratio ED50 mutant/ED50 wild-type) is more than 500 and the DNA Synthesis NIH 3T3 cells (ED50 mutant/ED50 wild-type), -heparin (ratio ED50 mutant/ED50 wild-type) was found to be 500.

B7: FGF4 (Gly79-Leu206) F151A (ligand)
chain: B1 chain with A9Y, F73A
As to B7, the IC50 mutant/IC50 wild-type (ratio (IC50 mutant/IC50 wild-type)) in assay [1] was determined as 2.5.

B8: FGF4 (Gly79-Leu206) L162A (ligand)
chain: B1 chain with A9Y, L84A
Turning to B8, the IC50 mutant/IC50 wild-type (ratio (IC50 mutant/IC50 wild-type)) in assay [1] was more than 1000.

B9: FGF4 (Gly79-Leu206) H201A (ligand)
chain: B1 chain with A9Y, H123A
As to B9, the IC50 mutant/IC50 wild-type (ratio (IC50 mutant/IC50 wild-type)) in assay [1] is more than 1000.

B10: FGF4 (Gly79-Leu206) E159A (ligand)
chain: B1 chain with A9Y, E81A
Consider B10, for which the IC50 mutant/IC50 wild-type (ratio (IC50 mutant/IC50 wild-type)) in assay [1] is 5.

B11: FGF4 (Gly79-Leu206) L203A (ligand)
chain: B1 chain with A9Y, L125A
Turning to B11, the IC50 mutant/IC50 wild-type (ratio (IC50 mutant/IC50 wild-type)) in assay [1] is more than 100. In addition, in assay [2], the DNA Synthesis NIH 3T3 cells (ED50 mutant/ED50 wild-type), +heparin (ratio ED50 mutant/ED50 wild-type) was more than 500 and the DNA Synthesis NIH 3T3 cells (ED50 mutant/ED50 wild-type), -heparin (ratio ED50 mutant/ED50 wild-type) was more than 500.
